This assay concerns the target human HER2 (ErbB2) (human) (UniProt P04626). Description: cell-based or functional assay.

“murine monoclonal antibody 4D5 (ATCC CRL 10463)” came in with a maximum inhibition of cell proliferation in SK-BR-3 cells of 66%.

These data come from patent US20020001587A1.
